Assays:
Format in all cases: cell-based, human
DU145 cells = assay: RNASE4-induced cell proliferation (MTT assay); conditions: exogenous RNASE4 1 μg/ml, DU145, 2% FBS
Experimental: FIGS. 10A-E. RNASE4 induces prostate cancer cell proliferation and phosphorylation of AKT and S6. (A and B) Exogenous RNASE4 (1 μg/ml) stimulates cell proliferation (A) and cell cycle progression (B) of DU145 cells cultured in the presence of 2% FBS. Cell numbers were determined by MTT assay. Cell cycle status was determined by flow cytometry after 24 hour incubation with RNASE4. (C) Time course of AKT and S6 phosphorylation of serum-starved DU145 cells by RNASE4 (1 μg/ml). Left panels, immunoblots; right panels, quantification of p-AKT and p-S6 normalized to total AKT and S6 by Image J analysis. […] Cells were pre-incubated with the inhibitors at the indicated concentrations for 1 hour prior to be stimulated by 1 μg/ml of RNASE4 for 5 minutes. Top panels, immunoblots; bottom panels, Image J quantification of p-AKT and p-S6 normalized to total AKT and S6. (E) Effect of AKT inhibitor MK-2206, PI3K inhibitors Wortmannin and LY294002, and mTOR inhibitor Rapamycin on RNASE4-induced cell proliferation. DU145 cells were serum-starved overnight, incubated with the inhibitors for 1 hour, and then treated with RNASE4 (1 μg/ml) for three days. Cell numbers were determined by MTT assay. Data shown are from a representative experiments in triplicates of 3 independent repeats. Error bars indicate SEM. **P≤0.01, by unpaired two-tailed Student's t test.
FIGS. 12A-F. RNASE4 induces AXL phosphorylation. (A) Human phospho-receptor tyrosine kinase (RTK) antibody array analysis. Serum-starved DU145 cells were treated with or without 1 μg/ml of RNASE4 for 5 minutes. […] Cell lysates were analyzed by antibodies against total AXL and phospho-AXL, with β-actin as the loading control. Left panels, immunoblots; right panel, Image J quantification of p-AXL normalized to total AXL. […] Left panels, immunoblots; right panel, quantification. […] Cell numbers were determined by MTT assay. […] Cell lysates were analyzed for AKT and P6 phosphorylation by immunoblotting. Top panels, immunoblots; bottom panels, quantification of phospho-AKT and phospho-S6 by Image J analyses normalized to total AKT and P6, respectively. […]

PC-3 cells [1] = assay: RNASE4 knockdown, cell proliferation (Coulter counter); conditions: PC-3, exogenous RNASE4 1 μg/ml
Excerpt: (§1) FIGS. 13A-D. RNASE4 knockdown reduces prostate cancer cell proliferation in vitro and colony formation in soft agar. (A) Immunoblot analysis of RNASE4 in PC-3 cells stably transfected with shControl, shRNASE4-1, and shRNASE4-2. (B) qRT-PCR analysis of RNASE4 mRNA normalized to GAPDH in PC-3 cells stably transfected with shControl, shRNASE4-1, and shRNASE4-2. (C) Effect of RNASE4 knockdown on cell proliferation. Cell numbers were counted by a Coulter counter. Exogenous RNASE4, when presented, was at the concentration of 1 μg/ml. Data shown are from representative experiment (in triplicates) of 3 independent repeats. (D) Effects of RNASE4 knockdown on colonies formation and growth of PC-3 cells in soft agar. The same numbers of control and RNASE4 knockdown cells were seeded in soft agar, and grown in the absence or presence of 1 μg/ml of RNASE4 for 14 days. Colonies were counted and size measured on a Nikon Eclipse ti microscope. Left panels, representative images of colonies; scale bars=100 μm. Right panels, quantification of colony numbers and sizes. Data shown are means±SEM from five randomly selected fields per dish from a representative experiment. *P≤0.05, **P≤0.01, and ***P≤0.001, by two-tailed Student's t test.
(§2) Lentiviral mediated shRNA system (pGIPZ, Open Biosystems) was used to generate control and RNASE4 knockdown cell lines. […]

LNCaP cells [2] = assay: as above; conditions: exogenous RNASE4 1 μg/ml
Excerpt: (§3) FIGS. 15A-D. RNASE4 knockdown inhibits LNCaP cell proliferation in vitro and colony formation in soft agar. (A) Immunoblot analysis of RNASE4 in LNCaP cells stably transfected with shControl, shRNASE4-1, and shRNASE4-2. (B) qRT-PCR analysis of RNASE4 mRNA normalized to GAPDH in LNCaP cells stably transfected with shControl, shRNASE4-1, and shRNASE4-2. (C) Effect of RNASE4 knockdown on LNCaP cell proliferation. Cell numbers were counted by Coulter counter. Exogenous RNASE4, when presented, was at the concentration of 1 μg/ml. Data shown are from a representative experiment in triplicates of 3 independent experiments. (D) Effects of RNASE4 knockdown on colonies formation and growth of LNCaP cells in soft agar. The same numbers of control and RNASE4 knockdown cells were seeded in soft agar, and grown in the absence or presence of 1 μg/ml of RNASE4 for 14 days. Colonies were counted and size measured on a Nikon Eclipse ti microscope. Top panels, representative images of colonies; scale bars=100 μm. Bottom panels, quantification of LMCaP cell colonies and sizes in soft agar. Data shown are means±SEM of five randomly selected fields per dish from a representative experiment. **P≤0.01 and ***P≤0.001, by two-tailed Student's t test.
as §2

PC-3 cells [3] = assay: RNASE4 knockdown, colony formation in soft agar; conditions: PC-3, exogenous RNASE4 1 μg/ml, 14 days
Excerpt: as §1, §2

LNCaP cells [4] = assay: RNASE4 knockdown, colony formation in soft agar; conditions: exogenous RNASE4 1 μg/ml, 14 days
Excerpt: as §3, §2

B1: RNASE4: recombinant human RNASE4 protein from pET11 expression in E. coli, purified by reversed-phase HPLC; added exogenously (protein, UniProt P34096 29-147, looked up)
Ribonuclease 4: QDGMYQRFLRQHVHPEETGGSDRYCNLMMQRRKMTLYHCKRFNTFIHEDIWNIRSICSTTNIQCKNGKMNCHEGVVKVTDCRDTGSSRAPNCRYRAIASTRRVVIACEGNPQVPVHFDG
**Q.** How did the cell proliferation (DU145 cells) turn out when B1 was run?
**A.** Its cell proliferation is “stimulates”.

**Q.** And the “rescue of the effect of RNASE4 knockdown on cell proliferation” value (PC-3 cells [1])?
**A.** Its value is “able to rescue”.

**Q.** And the “rescue of the effect of RNASE4 knockdown on cell proliferation” value (LNCaP cells [2])?
**A.** Its value is “able to rescue”.

**Q.** What about the “rescue of the effect of RNASE4 knockdown on colony formation” value (PC-3 cells [3]) of the same molecule?
**A.** Its value is “able to rescue”.

**Q.** What about the “rescue of the effect of RNASE4 knockdown on colony formation” value (LNCaP cells [4]) of the same molecule?
**A.** Its value is “able to rescue”.
